Measurements as given in paper PMC8354592.

Target: GST-GNL1 (UniProt P36915 1-607)
Test: EMSA

Sequence of GST-GNL1 (P36915 whole entry): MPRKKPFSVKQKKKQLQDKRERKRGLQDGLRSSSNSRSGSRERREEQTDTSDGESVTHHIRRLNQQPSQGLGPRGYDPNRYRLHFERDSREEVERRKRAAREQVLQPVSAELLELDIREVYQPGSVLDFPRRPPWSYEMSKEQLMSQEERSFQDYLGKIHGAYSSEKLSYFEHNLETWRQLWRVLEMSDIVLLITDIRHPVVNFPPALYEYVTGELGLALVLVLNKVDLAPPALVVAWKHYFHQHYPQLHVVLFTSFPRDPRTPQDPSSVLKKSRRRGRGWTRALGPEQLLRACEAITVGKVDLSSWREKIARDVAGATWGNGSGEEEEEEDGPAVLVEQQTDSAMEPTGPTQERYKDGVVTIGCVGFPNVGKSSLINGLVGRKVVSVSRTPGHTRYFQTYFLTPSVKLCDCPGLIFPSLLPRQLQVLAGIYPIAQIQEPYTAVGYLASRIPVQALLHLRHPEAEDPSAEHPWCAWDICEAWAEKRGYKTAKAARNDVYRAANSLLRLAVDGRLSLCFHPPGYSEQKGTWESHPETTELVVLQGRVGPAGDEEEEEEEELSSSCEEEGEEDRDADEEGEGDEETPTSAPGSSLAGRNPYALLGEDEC

B1: PRKN G/A mutant (ssRNA)
RNA: GGAUUCCUAGGGCCGAGCGCGAGAGCGAGAAGGCCUGAAGGAUUUAACCCAGAAGAGCCGCUGGUGAGAGGCGCGGCUGGCGCCGCUGCGCGC
In the case of B1, the Kd is reported as 7.34 µM.
